Residue numbers refer to the chain shown, from its start. Read-outs that look alike come from different tables or passages of the source.
B1: 21D5 (antibody, V domains shown)
VH: QVQLKQSGPGLVQPSQSLSITCTVSGFSLTRYGVHWVRQSPGKGLEWLGVIWRGGSTDYNAAFMSRLSITKDNSKSQVFFKMNSLQADDTAIYYCAKEGTGILDSWGQGTTLTVSS
VL: DIVLTQSPASLAVSLGQRATISCRASKSVSTSGYSYMHWYQQKPGQPPTLLIYLASNLESGVPARFSGSGSGTDFTLNIHPVEEEDAATYYCQHSRELPYTFGGGTKLEIK
notes: also called Clone # 78
B2: 06F1 (antibody, V domains shown)
VH: EVQLQQSGAELVRPGASVKLSCTASGFNIKDDYMHWVKQRPEQGLEWIGWIDPENGDTEYASKFQGKATITADTSSNTAYLQLSSLTSEDTAVYYCTNYYGSSPFDYWGQGTTLTVSS
VL: QIVLTQSPAIMSAFLGERVTMTCTASSSVSSRYLHWYQQKPGSSPKLWIYSTSNLASGVPARFSGSGSGTSYSLTISSMEAEDAATYYCHQYHRSPLTFGAGTKLELK
notes: also called Clone # 67
B3: 17F11 (antibody, V domains shown)
VH: EVQLQQSGPELVKPGASVKMSCKASGYTFTDYNMHWVKQSHGKSLEWIGYINPNNGGTNYNQKFQGKATLTVNKSSRTAYMELRSLTSEDSAVYYCVRFYYGSRYYAMDYWGQGTSVTVSS
VL: DIVMTQSPATLSVTPGDRVSLSCRASQSISDYLHWYQQKSHESPRLLIKYASQSISGIPSRFSGSGSGSDFTLSINSVEPEDVGVYYCQNGHSFPYTFGGGTKLEIK
notes: also called Clone # 55
B4: 11B12 (antibody, V domains shown)
VH: QVQLQQSGPELVKPGASVKISCKASGYSFTSYYIHWVKQRPGQGLEWIGWIYPGSGNTKYNEKFKGKATLTADTSSSTAYMQLSSLTSEDSAVYYCARGNWHWYFDVWGTGTTVTVSS
VL: EIVLTQSPALMAASPGEKVTITCSVSSSISSSNLHWYQQKSETSPKPWIYGTSNLASGVPVRFSGSGSGTSYSLTISSMEAEDAATYYCQQWSSYPLTFGAGTKLELK
notes: also called Clone # 75
B5: 08D8 (antibody, V domains shown)
VH: QVQLQQPGAELVKPGASVKLSCKASGYTFTSYWMQWVKQRPGQGLEWIGEIDPSDSYTNYNQKFKGKATLTVDTSSSTAYMQLSSLTSEDSAVYYCARGDYYGSSSWFAYWGQGTLVTVSA
VL: DIVMTQAAPSVPVTPGESVSISCRSSKSLLHSNGNTYLYWFLQRPGQSPQLLIYRMSNLASGVPDRFSGSGSGTAFTLRISRVEAEDVGVYYCMQHLEYPFTFGAGTKLELK
notes: also called Clone # 84
B6: 03C7 (antibody, V domains shown)
VH: QVQLQQSGPELVKPGASVKISCKASGYSFTSYYIHWVKQRPGQGLEWIGWIYPGSGNTKYNEKFKGKATLTADTSSSTAYMQLSSLTSEDSAVYYCARMGSSYWYFDVWGTGTTVTVSS
VL: ENVLTQSPAIMAASLGQKVTMTCSASSSVSSSYLHWYQQKSGASPKPLIHRTSNLASGVPARFSGSGSGTSYSLTISSVEAEDDATYYCQQWSGYPLTFGAGTKLELK
notes: also called Clone # 85
B7: 53B11 (antibody, V domains shown)
VH: EVQLQQSGPELVKPGTSMKISCKASGYSFTDYTVNWVKQSHGKNLEWIGLINPYNGGTSYNQKFKGKATLTVDKSSSTAYMELLSLTSEDSAVYYCARWGYYYATSYYFAMDYWGQGTSVTVSS
VL: DIQMNQSPSSLSASLGDTITITCHASQNINVWLSWYQQKPGNIPKLLIYKASNLHTGVPSRFSGSGSGTGFTLTISSLQPEDIATYYCQQGQSYPWTFGGGTKLEIK
notes: also called Clone # 33
B8: 06D1 (antibody, V domains shown)
VH: EVQLQQSGAELVRPGASVKLSCTASGFNIKDDYMHWVKQRPEQGLEWIGWIDPENGDTEYASKFQGKATITADTSSNTAYLQLSSLTSEDTAVYYCTTVAPGYYAMDYWGQGTSVTVSS
VL: ENVLTQSPAIMSASPGEKVTMTCRASSSVSSSYLHWYQQKSGASPKLWIYSTSNLASGVPARFSGSGSGTSYSLTISSVEAEDAATYYCQQYSGFTFGSGTKLEIK
notes: also called Clone # 11
B9: 06H10 (antibody, V domains shown)
VH: B8 VH with G102Y
VL: QIVLTQSPAIMSASLGEEITLTCSASSSVSYMHWYQQKSGTSPKLLIYSTSNLASGVPSRFSGSGSGTFYSLTISSVEAEDAADYYCHQWSSYHTFGGGTKLEIK
B10: 06D12 (antibody, V domains shown)
VH: QVQLQQSGAELMKPGASVKLSCKATGYTFTGYWIEWVKQRPGHGLEWIGEILPGSGSTNYNEKFKGKATFTADTSSNTAYMQLSSLTTEDSAIYYCAYTVVATDWYFDVWGTGTTVTVSS
VL: ENVLTQSPAIMSASLGEKVTMSCRASSSVNYMYWYQQKSDASPKLWIYYTSNLAPGVPARFSGSGSGNSYSLTISSMEGEDAATYYCQQFTSSPWTFGGGTKLEIK
notes: also called Clone # 10
B11: 12D5 (antibody, V domains shown)
VH: QVQLQQPGAELVKPGASVKLSCKASGYTFTNYWMHWVKQRPGQGLEWIGMIHPNSGSTNYNEKFKSKATLTVDKSSSTAYMQLSSLTSEDSAVYYCARPHGYPFGYWGQGTTLTVSS
VL: B10 VL with W95Y
notes: also called Clone # 26
B12: 16H4 (antibody, V domains shown)
VH: QVQLKQSGPGLVQPSQSLSITCTASGFSLTSYGVHWVRQSPGKGLEWLGVIWSGGSTDYSAAFISRLSISKDSSKSQVFFKMNSLQADDTAIYYCARNLPITSYDPSSFYAMDYWGQGTSVTVSS
VL: DIQMTQTTSSLSASLGDRVTISCSASQGISNYLNWYQQKPDGTVKLLIYYTSSLHSGVPSRFSGSGSGTDYSLTISNLEPEDIATYYCQQYSKLPFTFGSGTKLEIK
notes: also called Clone # 95
B13: 18G4 (antibody, V domains shown)
VH: EVKLMESGGGLVQPGASLRLSCAASGFTFTDYYMSWVRQPPGKAPEWLALIRNKANGYTTEYNASVKGRFTISRDNSQNILYLQMNTLRTEDSATYYCVRGGFAYWGQGTLVTVSA
VL: QAVVIQESALTTSPGETVTLTCRSSTGAVTTSHYAIWVQEKPDHLFTGLIGGTNNRVPGVPARFSGSLIADKAALTITGAQTEDEAIYFCALWYTNQFIFGSGTKVTVL
notes: also called Clone # 45
B14: 43C8 (antibody, V domains shown)
VH: EIQLQQSGPELVKPGASVKMSCKASGYTFTDYVISWVKQRTGQGLEWIGEIYPGSHTYYNEKFKGKATLTADKSSNTAYMQLSSLTSEDSAVYFCALTAGAMDYWGQGTSVTVSS
VL: NIMMTQSPSSLAVSAGEKVTMSCKSSQSVLYSSNQKNYLAWYQQKPGQSPKLLIYWASTRESGVPDRFTGSGSGTDFTLTISSVHAEDLAVYYCHQYLSSYTFGGGTKLEIK
notes: also called Clone # 28
B15: 45A12 (antibody, V domains shown)
VH: QVQLQQSGAELMKPGASVKISCKATGYTFSTYWIEWVKQRPGHGLEWIGEILPGSGSTNYNEKFKGKATFTADASSNTAYMQLSSLTSEDSAVYYCARDGGAMDYWGQGTSVTVSS
VL: B14 VL with S28R, S83T, H85Q, A86P, Y101R
notes: also called Clone # 36

What was measured:
[1] = molecular target: T1, Recombinant human M6PR ECD-His (human, UniProt P11717 41-2304); assay: Octet BLI; mIgG from hybridoma supernatant on anti-mouse biosensor, His-tagged human M6PR analyte
T1 construct: extracellular domain; also called recombinant His-tagged human M6PR; human M6PR antigen; not shown: His tag

[2] = molecular target: T2, purified recombinant CI-M6PR (domains 1-9) protein (human, UniProt P11717 41-1365, limits assumed); assay: ELISA on human M6PR, Abs 450nm, antibody about 0.0005-1 ug/mL
T2 construct: domain: domains 1-9; also called human CI-M6PR; wild-type human CI-M6PR

[3] = molecular target: human CI-M6PR on K562 cells (human, UniProt P11717 41-2491); assay: cell-based or functional assay
[4] = molecular target: T2, purified recombinant CI-M6PR (domains …); assay: BLI (GatorPrime), antibody on anti-mouse IgG Fc sensor, CI-M6PR (domains 1-9) in solution, global 1:1 fit;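 also: human CI-M6PR tested at a range of concentrations against captured antibodies, measured at 30 °C, analyte diluted in PBS carrying Tween-20, BSA and NaN3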
[5] = molecular target: T2, purified recombinant CI-M6PR (domains …); assay: ELISA on human M6PR, Abs 450nm, antibody about 0.0005-1 ug/mL; remark: listed apart in the source
[6] = molecular target: T2, purified recombinant CI-M6PR (domains …); assay: as above; remark: listed apart in the source
[7] = molecular target: T2, purified recombinant CI-M6PR (domains …); assay: as above; remark: listed apart in the source
[8] = molecular target: T2, purified recombinant CI-M6PR (domains …); assay: as above; remark: listed apart in the source
[9] = molecular target: T2, purified recombinant CI-M6PR (domains …); assay: as above; remark: listed apart in the source
[10] = molecular target: T2, purified recombinant CI-M6PR (domains …); assay: as above; remark: listed apart in the source

| Binder | Kd [1] | EC50 (read off the curve) [2] | Uptake pHrodo (MFI) [3] | Kd [4] | koff [4] | kon [4] | EC50 (read off the curve) [5] | EC50 (read off the curve) [6] | EC50 (read off the curve) [7] | EC50 (read off the curve) [8] | EC50 (read off the curve) [9] | EC50 (read off the curve) [10] |
| --- | --- | --- | --- | --- | --- | --- | --- | --- | --- | --- | --- | --- |
| B1 | 43.1 nM | ~0.02 µg/mL | 9980 MFI | 62.2 nM | 0.000789 s⁻¹ | 12700 M⁻¹ s⁻¹ | – | – | – | – | – | – |
| B2 | 17.3 nM | – | 34200 MFI | – | – | – | – | – | – | – | – | – |
| B3 | 10.5 nM | – | 12500 MFI | 10 nM | 0.000454 s⁻¹ | 45300 M⁻¹ s⁻¹ | ~0.01 µg/mL | – | – | – | – | – |
| B4 | 90.6 nM | – | 43000 MFI | 237 nM | 0.0112 s⁻¹ | 47400 M⁻¹ s⁻¹ | – | – | – | – | – | – |
| B5 | 259 nM | – | 10900 MFI | 351 nM | 0.00185 s⁻¹ | 5250 M⁻¹ s⁻¹ | – | – | – | – | – | – |
| B6 | 17.5 nM | – | 41700 MFI | 24.9 nM | 0.0154 s⁻¹ | 618000 M⁻¹ s⁻¹ | – | ~0.01 µg/mL | – | – | – | – |
| B7 | 2.59 nM | – | 9700 MFI | 3.44 nM | 0.000445 s⁻¹ | 129000 M⁻¹ s⁻¹ | – | – | – | – | – | – |
| B8 | 17.1 nM | – | 22400 MFI | 45.1 nM | 0.0111 s⁻¹ | 245000 M⁻¹ s⁻¹ | – | – | ~0.01 µg/mL | – | – | – |
| B9 | – | – | 65800 MFI | – | – | – | – | – | – | – | – | – |
| B10 | 9.56 nM | – | 47000 MFI | – | – | – | – | – | – | – | – | – |
| B11 | 12.2 nM | – | 35800 MFI | 184 nM | 0.0123 s⁻¹ | 66700 M⁻¹ s⁻¹ | – | – | – | ~0.01 µg/mL | – | – |
| B12 | 615 nM | – | 13400 MFI | – | – | – | – | – | – | – | – | – |
| B13 | 8.74 nM | – | 10400 MFI | 13 nM | 0.000616 s⁻¹ | 47200 M⁻¹ s⁻¹ | – | – | – | – | ~0.01 µg/mL | – |
| B14 | 5.27 nM | – | 30800 MFI | 6.33 nM | 0.00104 s⁻¹ | 164000 M⁻¹ s⁻¹ | – | – | – | – | – | ~0.02 µg/mL |
| B15 | 30 nM | ~0.01 µg/mL | 36000 MFI | 108 nM | 0.00872 s⁻¹ | 81000 M⁻¹ s⁻¹ | – | – | – | – | – | – |
